# Experimental data reported in patent publication KR20230087219A (dated 2023).
# Where a chain is given by its changes, count along the chain named.
# B1: 54G10 (antibody, V domains shown)
# VH: EVTLKVCGPGILQPSQTLSLTCSFSGFSLSTSGMGVGWIRQPSGKGLEWLAHIWWDDVKRYNPALKSRLTISKDTSSSQVFLKIASVDTADTATYYCARYYRYDVRWGQGTLVTVSA
# VL: DIVMTQTPKFLLVSAGDRVTITCKASQSVSNDVAWYQQKPGQSPTLLIYSASNRYTGVPDRFTGSGYGTDFTFTISTVQAEDLAVYFCQQDYSSPLTFGAGTKLELK
# notes: also called monoclonal antibody 54G10
# B2: 79C12 (antibody, V domains shown)
# VH: EVKLEESGGGLVQPGGSMKLSCVASGFTFSDYWMNWVRQSPEKGLEWVAEIRLKSNNYATHYAESVKGRFTISRDDSKSSVYLQMNNLRAEDTGIYYCTRAAMDYWGQGTSVTVSS
# VL: not shown
# notes: also called monoclonal antibody 79C12
# B3: 54G6 (antibody, V domains shown)
# VH: B2 VH with K3Q, L4G, E5V, V23A, A49G, V81I, Y82H, A101Y, S111T
# VL: GIVMTQSPSSLAVSPGEKVTMSCKSSQSLLNSRTRKNHLAWYQQKPGQSPKLLIYWASTKDSGVPDRFTGSGSGTDFTLTISSVQAEDLAVYYCKQSYNLFTFGSGTKLEIK
# notes: also called monoclonal antibody 54G6
# Target: T1, SARS-CoV nucleocapsid protein (Sino Biological Cat. No. 40143-V08B) (SARS-CoV, UniProt P59595 1-422)
# T1 construct: also called SARS-CoV NP
# Test: indirect LFIA, NP fixed on nitrocellulose, hybridoma culture medium
row,Binder,binding result
1,B1,no binding
2,B2,no binding
3,B3,no binding

# Target: T2, MERS-CoV nucleocapsid protein (Sino Biological Cat. No. 40068V08B) (MERS-CoV, UniProt K9N4V7 1-411)
# T2 construct: also called MERS-CoV NP; MERS NP
# Test: as above
row,Binder,binding result
1,B1,no binding
2,B2,no binding
3,B3,no binding
